Reference: patent US20240115611A1 (KITE PHARMA, published 2024)
Residue numbers refer to the chain shown, from its start.

T1: CD20 (human CD20) (human, UniProt P11836 1-297)
T1 construct: whole, on cells; The cell line for each value is named under assay
T1 sequence (looked up): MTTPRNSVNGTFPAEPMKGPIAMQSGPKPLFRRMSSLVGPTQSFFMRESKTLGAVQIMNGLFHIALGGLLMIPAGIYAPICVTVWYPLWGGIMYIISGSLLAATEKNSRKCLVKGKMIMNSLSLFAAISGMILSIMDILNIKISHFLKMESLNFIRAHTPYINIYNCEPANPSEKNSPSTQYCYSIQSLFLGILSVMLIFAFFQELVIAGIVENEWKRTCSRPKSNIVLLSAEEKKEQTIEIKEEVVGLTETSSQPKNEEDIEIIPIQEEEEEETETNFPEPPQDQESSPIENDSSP

B1: Ab8 (Exemplary Antibody Sequences 8), anti-CD20 antibody (antibody, V domains shown)
VH: QVQLQQWGAGLLKPSETLSLTCAVYGGSFSRYVWSWIRQPPGKGLEWIGEIDSSGKTNYNPSLKSRVTISVDTSKNQFSLKLSSVTAADTAVYYCARVRYDSSDSYYYSYDYGMDVWGQGTTVTVSS
VL: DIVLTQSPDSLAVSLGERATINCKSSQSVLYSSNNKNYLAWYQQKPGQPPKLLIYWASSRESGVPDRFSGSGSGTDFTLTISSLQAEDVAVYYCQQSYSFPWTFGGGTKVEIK
B2: Ab9 (Exemplary Antibody Sequences 9), anti-CD20 antibody (antibody, V domains shown)
VH: B1 VH with R31G, V33A, S53H, S54R, K56F
VL: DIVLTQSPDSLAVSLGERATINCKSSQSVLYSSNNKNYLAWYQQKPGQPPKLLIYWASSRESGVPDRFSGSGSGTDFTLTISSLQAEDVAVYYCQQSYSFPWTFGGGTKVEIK
B3: Ab7 (Exemplary Antibody Sequences 7), anti-CD20 antibody (antibody, V domains shown)
VH: B1 VH with S30E, R31K, V33Y, D52Y, S53H, K56L
VL: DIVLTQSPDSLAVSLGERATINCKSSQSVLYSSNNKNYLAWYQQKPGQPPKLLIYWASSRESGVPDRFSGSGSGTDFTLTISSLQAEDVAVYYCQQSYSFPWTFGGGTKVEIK
B4: Ab10 (Exemplary Antibody Sequences 10), anti-CD20 antibody (antibody, V domains shown)
VH: QVQLQQWGAGLLKPSETLSLTCAVYGGSFQKYYWSWIRQPPGKGLEWIGEIDTSGFTNYNPSLKSRVTISVDTSKNQFSLKLSSVTAADTAVYYCARVGRYSYGYYITAFDIWGQGTTVTVSS
VL: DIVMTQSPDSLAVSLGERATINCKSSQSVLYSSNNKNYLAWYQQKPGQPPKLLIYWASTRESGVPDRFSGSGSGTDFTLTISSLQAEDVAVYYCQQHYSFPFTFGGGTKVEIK
B5: Ab4 (Exemplary Antibody Sequences 4), anti-CD20 antibody (antibody, V domains shown)
VH: QVQLVQSGAEVKKPGASVKVSCKASGYTFKEYGISWVRQAPGQGLEWMGWISAYSGHTYYAQKLQGRVTMTTDTSTSTAYMELRSLRSDDTAVYYCARGPHYDDWSGFIIWFDPWGQGTLVTVSS
VL: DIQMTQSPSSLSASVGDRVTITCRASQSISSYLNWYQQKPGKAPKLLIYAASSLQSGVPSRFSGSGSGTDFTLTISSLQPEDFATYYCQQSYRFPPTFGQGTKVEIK
B6: Ab3 (Exemplary Antibody Sequences 3), anti-CD20 antibody (antibody, V domains shown)
VH: QLQLQESGPGLVKPSETLSLTCTVSGGSISSSSYYWGWIRQPPGKGLEWIGSIYYSGSTYYNPSLKSRVTISVDTSKNQFSLKLSSVTAADTAVYYCARETDYSSGMGYGMDVWGQGTTVTVSS
VL: DIQMTQSPSSLSASVGDRVTITCRASQSINSYLNWYQQKPGKAPKLLIYAASSLQSGVPSRFSGSGSGTDFTLTISSLQPEDFATYYCQQSLADPFTFGGGTKVEIK
B7: Ab6 (Exemplary Antibody Sequences 6), anti-CD20 antibody (antibody, V domains shown)
VH: QITLKESGPTLVKPTQTLTLTCTFSGFSLDTEGVGVGWIRQPPGKALEWLALIYFNDQKRYSPSLKSRLTITKDTSKNQVVLTMTNMDPVDTAVYYCARDTGYSRWYYGMDVWGQGTTVTVSS
VL: B6 VL with L11V, S28G, N30S, Y32W, N34A, S91A, L92Y, D94Y, F96I
B8: Ab5 (Exemplary Antibody Sequences 5), anti-CD20 antibody (antibody, V domains shown)
VH: B6 VH with L2V, S32P, S33D, Y34H, Y55A, Y60F
VL: B6 VL
B9: Ab2 (Exemplary Antibody Sequences 2), anti-CD20 antibody (antibody, V domains shown)
VH: QVQLQQWGAGLLKPSETLSLTCAVYGGSFSGIHWNWIRQPPGKGLEWIGDIDTSGSTNYNPSLKSRVTISVDTSKNQFSLKLSSVTAADTAVYYCARLGQESATYLGMDVWGQGTTVTVSS
VL: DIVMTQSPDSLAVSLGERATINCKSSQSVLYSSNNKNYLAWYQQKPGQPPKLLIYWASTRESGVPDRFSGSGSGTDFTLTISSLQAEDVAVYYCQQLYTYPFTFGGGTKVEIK
B10: Ab1 (Exemplary Antibody Sequences 1), anti-CD20 antibody (antibody, V domains shown)
VH: QVQLQQWGAGLLKPSETLSLTCAVYGGSFSGYYWSWIRQPPGKGLEWIGEIDHSGSTNYNPSLKSRVTISVDTSKNQFSLKLSSVTAADTAVYYCARGGGSWYSNWFDPWGQGTMVTVSS
VL: DIQMTQSPSTLSASVGDRVTITCRASQSISSWLAWYQQKPGKAPKLLIYDASSLESGVPSRFSGSGSGTEFTLTISSLQPDDFATYYCQQDRSLPPTFGGGTKVEIK

Columns and labels:
CD20 (human CD20) [1] = target: T1, CD20 (human CD20); test: flow cytometry, purified IgG at 10 nM on Raji cells (CD20+), FITC-LC detection, ratio over negative control
Method: (§1) To determine cell binding by exemplary heavy chain variable domains and light chain variable domains of the present disclosure, purified IgGs were characterized for cell binding at a concentration of 10 nM by flow cytometry. Antibodies were incubated with CHO-S cells overexpressing CD20, Raji, and Namalwa CD20+ cell lines; and with EoL-1 and CHO-S CD20-cell lines. FITC-LC was used to detect IgGs. The ratio of binding over negative controls was calculated for each antibody.

CD20 (human CD20) [2] = target: T1, CD20 (human CD20); test: flow cytometry, purified IgG at 10 nM on Namalwa cells (CD20+), FITC-LC detection, ratio over negative control
Method: as §1

CD20 (human CD20) [3] = target: T1, CD20 (human CD20); test: flow cytometry, purified IgG at 10 nM on CHO-S cells overexpressing CD20, FITC-LC detection, ratio over negative control
Method: as §1

Raji Cell Binding FON (Fold Over Negative) (CD20 (human CD20) [1]) | Namalwa Cell Binding FON (Fold Over Negative) (CD20 (human CD20) [2]) | CHO-CD20 Cell Binding FOB (Fold Over Background) (CD20 (human CD20) [3]) | Binder
562 fold | 10 fold | 3830 fold | B1
562 fold | 11 fold | 3620 fold | B2
549 fold | 11 fold | 4080 fold | B3
186 fold | 4 fold | 3160 fold | B4
479 fold | 19 fold | 3620 fold | B5
316 fold | 16 fold | 2000 fold | B6
13 fold | 2 fold | 2520 fold | B7
185 fold | 17 fold | 2480 fold | B8
101 fold | 3 fold | 2790 fold | B9
266 fold | 12 fold | 813 fold | B10
